B1: SLC19A2 (parent)
chain: IYPVWTYSYLVLLFPVFLATDYLR

Variants of: B1
Test: protein stability index of a GFP-peptide fusion (GPS, HEK-293T) (PSI 1-6); higher = more stable
Details: c terminus: a fixed tail appended
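Also: lentivirally expressed fusions sorted by FACS into six bins by GFP to DsRed ratio, PSI derived from sequencing read proportions per bin multiplied by bin number.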

Protein stability index, by site and new letter:
V16: P 2.42; H 4.12; C 2.79; D 4.04; R 3.91; K 1.95; Q 3.85; M 2.55; Y 2.34; F 3.04; T 2.15; L 2.41; A 3.1; I 3.52; S 3.4; E 1.72; N 2.79
L13: N 2.64; I 2.53; F 2.64; S 2.34; D 3.57; C 2.38; E 2.6; P 1.48; G 1.19; M 3.06; W 3.58; Y 2.87; V 3.06; A 3.41; Q 4.28; T 1.87
L12: T 2.41; M 2.48; Q 3.02; F 2.25; S 2.91; N 1.72; D 2.3; H 3.3; K 3.56; Y 2.31; P 3.92; A 3.41; W 3.3; V 2.6; I 3.39; R 2.37
T20: F 2.44; C 2.53; Y 1.95; E 1.62; S 2.33; P 3.55; W 1.93; A 2.94; I 4.41; Q 3.01; L 4.02
F17: Y 2.43; G 2.81; N 3.6; E 3.22; P 4.41; A 3.59; R 2.95; H 3.74; C 2.97; T 2.95; D 2.99; S 2.64; K 3.78; M 3.21; W 2.19
F14: V 2.97; L 3.35; C 2.63; E 2.74; P 2.48; G 3.54; T 3.75; Y 2.88; A 2.08; W 2.47; R 3.83; I 3.07; Q 2.98; H 3.32; M 4.1; K 1.99
A19: I 2.47; W 3.92; D 2.38; Q 2.78; L 3.29; F 3.11; V 3.34; H 2.48; K 1.69; T 1.57; G 2.6; N 3.19; P 4.21; Y 3.37; M 2.59; S 2.5
P15: E 3.03; W 3.27; L 2.41; N 2.11; F 2.95; Y 1.06; Q 3.38; S 2.5; R 2.7; M 3.22; H 2.75; G 1.93; C 3.79; A 3.53
L10: Y 3.63; H 3.75; G 3.23; E 3.11; M 2.85; T 2.94; P 2.29; R 2.9; N 4.14; I 2.9; W 3.88; Q 2.81; K 1.93; S 3.94; V 3.74
V11: L 2.77; F 2.34; A 3.63; D 3.85; I 3.28; Q 4.14; P 2.04; N 2.92; G 3.44; M 1.95; C 3.16; W 4.19; H 3.87
D21: A 3.19
L18: A 2.5; H 3.99; E 3.06; Q 2.84; D 2.81; S 3.42; C 3.04; N 2.84; Y 2.32; G 3.7; R 4.66; I 3.03; P 3.1; F 2.3; T 2.54; M 3.69; K 2.51

Reference: the supplement of paper PMC10567573
